Patent publication US20130171235A1

Biological target: PTEN-long (endogenous human form, translated from the upstream CUG start site of PTEN mRNA) (Homo sapiens)
Test: concanavalin A sepharose pulldown from HEK293 lysate, immunoblot

share of PTEN-long in the PTEN pulled down: 50%
Substance: concanavalin A (lectin, on sepharose) (from UniProt P02866)
